In patent US20230090114A1, “METHODS FOR PROMOTING WEIGHT LOSS” (89BIO LTD., priority 2020, published 2023):

What was measured:
[1] = Semi-fasted blood glucose (4 hours of fasting); format: in vivo, CD-1 mice
[2] = Organ/tissue weights on T28; format: in vivo, CD-1 mice; details: for eWAT weight: T28
Procedure: On T28, after 4 hours of fasting, a terminal sampling of blood and organs/tissues was performed on anaesthetized mice (by a mixture of Ketamine/Xylazine, 80/10 mg/kg). A large blood sample was collected by cardiac puncture, and the following organ/tissues were collected, weighed, snap-frozen in liquid nitrogen and stored at −80° C. for further analyses: […]

[3] = Indirect calorimetry: VO2, VCO2, EE, RER (METABOpack sessions); format: in vivo, CD-1 mice
Procedure: The Physiocage System allows recording the O2 consumption (VO2) and the CO2 production (VCO2) by indirect calorimetry. For each animal, both VO2 and VCO2 were recorded for 3 min every 30 minutes and the mean values were calculated by the system.
Energy Expenditure (EE) and Respiratory Exchange Ratio (RER) were calculated with formulas that are based on VO2 and VCO2 values: […]
Analysis of these parameters was performed as follows: for each mouse, the mean values were calculated from the corresponding recordings for each nycthemeral phase (Diurnal Phase or DP, Nocturnal Phase or NP and Whole day or WD). The means per nycthemeral phase were then calculated for each group for statistical comparisons.

[4] = Diet-induced NASH model in mice; format: in vivo; details: 0.3 mg/kg, 3 times/week
[5] = T1, whatever the dose, vs vehicle
[6] = T2, DP and WD, whatever the dose, vs Liraglutide
[7] = T2, whatever the dose, vs vehicle
[8] = T14, DP, 3 mg/kg, vs Liraglutide
[9] = T14, NP and WD, whatever the dose, vs Liraglutide
[10] = T14, NP and WD, whatever the dose, vs vehicle
[11] = T14, between the three 89BIO-100 groups
[12] = T15, NP and WD, 1 and 3 mg/kg, vs vehicle
[13] = T15, between the three 89BIO-100 groups
[14] = T15, whatever the phase, 1 and 3 mg/kg, vs Liraglutide
[15] = T27, NP, whatever the dose, vs vehicle
[16] = T27, WD, 0.3 and 1 mg/kg, vs Liraglutide
[17] = T27, WD, 0.3 and 1 mg/kg, vs vehicle
[18] = T27, between the three 89BIO-100 groups

B1: Mutant FGF21-GalNAc-SA-PEG-20 kDa (conjugate)
chain: MHPIPDSSPLLQFGGQVRQRYLYTDDAQQTEAHLEIREDGTVGGAADQSPESLLQLKALKPGVIQILGVKTSRFLCQRPDGALYGSLHFDPEACSFRELLLEDGYNVYQSEAHGLPLHLPGNKSPHRDPAPRGPARFLPLPGLPPALPEPPGILAPQPPDVGSSDPLSMVGPTQGASPSYAS
- blood glucose levels ([1]; T3 and T16, between 89BIO-treated groups): no significant difference
- blood glucose levels ([1]; T3 and T16, whatever the dose, vs Liraglutide): higher blood glucose levels
- blood glucose levels ([1]; T3 and T16, whatever the dose, vs vehicle): did not alter
- blood glucose levels ([1]; T28, 3 mg/kg, vs 0.3 and 1 mg/kg): higher blood glucose levels
- blood glucose levels ([1]; T28, 3 mg/kg, vs vehicle): significant increase in blood glucose levels
- blood glucose levels ([1]; T29 (so in the source), 0.3 and 3 mg/kg, vs Liraglutide): increased
- hypoglycemic action ([1]; wild-type CD-1 mice, in contrast to Liraglutide (summary)): did not have a hypoglycemic action
- epididymal white adipose tissue (eWAT) weight ([2]; 89BIO-100 treated mice (summary)): strongly reduced
- eWAT weight ([2]; 1 and 3 mg/kg, vs vehicle): significant decrease in eWAT weight
- eWAT weight ([2]; among the three 89BIO-100 groups): no significant difference
- RER ([3]; T1, NP and WD, whatever the dose, vs Liraglutide): increase in RER
- VCO2 ([3]; T1, NP, whatever the dose, vs Liraglutide): increase in VCO2
- RER ([3]; T1, between 89BIO-100 groups): no significant difference
- VCO2 ([3]; T1, between all 89BIO-100 groups): no significant difference
- RER [3, 5]: No significant difference
- VCO2 [3, 5]: No significant difference
- EE [3, 6]: increase in EE
- VO2 [3, 6]: increase in VO2
- EE ([3]; T2, between 89BIO-100 groups): no significant difference
- VO2 ([3]; T2, between the three 89BIO-100 groups): no significant difference
- EE [3, 7]: No significant difference
- VO2 [3, 7]: No significant difference
- EE [3, 8]: increased
- VO2 [3, 8]: increased
- EE ([3]; T14, DP, 3 mg/kg, vs vehicle): increased
- VO2 ([3]; T14, DP, 3 mg/kg, vs vehicle): increased
- EE [3, 9]: increase in EE
- RER [3, 9]: decrease in RER
- VO2 [3, 9]: increase in VO2
- EE [3, 10]: increased
- VO2 [3, 10]: increased
- VCO2 ([3]; T14, NP, whatever the dose, vs Liraglutide): increase in VCO2
- VCO2 ([3]; T14, NP, whatever the dose, vs vehicle): increased
- VCO2 ([3]; T14, WD, 1 and 3 mg/kg, vs Liraglutide): increased
- VCO2 ([3]; T14, WD, 1 and 3 mg/kg, vs vehicle): increased
- EE [3, 11]: no significant difference
- VCO2 [3, 11]: no significant difference
- VO2 [3, 11]: no significant difference
- RER ([3]; T14, whatever the dose, vs vehicle): No significant difference
- EE ([3]; T15, DP, 1 mg/kg, vs vehicle): increased
- VCO2 ([3]; T15, DP, 1 mg/kg, vs vehicle): increased
- VO2 ([3]; T15, DP, 1 mg/kg, vs vehicle): increased
- EE [3, 12]: increased
- VCO2 [3, 12]: increased
- VO2 [3, 12]: increased
- EE [3, 13]: no significant difference
- VCO2 [3, 13]: no significant difference
- VO2 [3, 13]: no significant difference
- EE [3, 14]: increase in EE
- VCO2 [3, 14]: increase in VCO2
- VO2 [3, 14]: increase in VO2
- VCO2 ([3]; T27, NP and WD, 0.3 and 1 mg/kg, vs vehicle): increased
- VCO2 ([3]; T27, NP and WD, dose of 1, vs Liraglutide): increase in VCO2
- VO2 ([3]; T27, NP, 1 and 3 mg/kg, vs Liraglutide): increase in VO2
- EE ([3]; T27, NP, dose of 1, vs Liraglutide): increase in EE
- EE [3, 15]: increased
- VO2 [3, 15]: increased
- EE [3, 16]: increased
- VO2 [3, 16]: increase in VO2
- EE [3, 17]: increased
- VO2 [3, 17]: increased
- EE [3, 18]: no significant difference
- VCO2 [3, 18]: no significant difference
- VO2 [3, 18]: no significant difference
- thermogenesis ([3]; concluded from energy expenditure effects): increased
- energy expenditure ([3]; summary, second (T14/T15) and third (T27) METABOpack session, vs Vehicle): increase in energy expenditure
- efficacy in Diet-induced NASH model [4]: effective
